Values quoted from earlier work in publication PMC9842050.
Read-outs that look alike come from different tables or passages of the source.

Legend:
[1] = molecular target: CXCR4 (Homo sapiens) (UniProt P61073)
[2] = molecular target: CXCR4 (Homo sapiens) (UniProt P61073); remark: listed apart in the source
[3] = molecular target: GLP-1R (Homo sapiens) (UniProt P43220); test: radioligand competition binding
[4] = molecular target: GLP-1R (Homo sapiens) (UniProt P43220); test: radioligand competition binding; remark: listed apart in the source

CXCR4 (Homo sapiens), sequence (P61073 whole entry): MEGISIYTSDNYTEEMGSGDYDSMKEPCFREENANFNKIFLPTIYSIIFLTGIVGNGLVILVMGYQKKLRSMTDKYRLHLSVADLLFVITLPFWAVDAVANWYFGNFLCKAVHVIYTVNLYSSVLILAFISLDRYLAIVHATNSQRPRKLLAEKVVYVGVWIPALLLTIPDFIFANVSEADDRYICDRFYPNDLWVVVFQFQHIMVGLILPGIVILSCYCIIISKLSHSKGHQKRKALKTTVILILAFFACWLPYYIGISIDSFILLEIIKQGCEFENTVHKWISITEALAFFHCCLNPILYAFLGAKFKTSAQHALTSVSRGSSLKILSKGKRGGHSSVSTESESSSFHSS
exendin-4, sequence (P26349 48-86): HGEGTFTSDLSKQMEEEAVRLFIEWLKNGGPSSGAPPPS
SDF-1α, sequence (P48061 24-88): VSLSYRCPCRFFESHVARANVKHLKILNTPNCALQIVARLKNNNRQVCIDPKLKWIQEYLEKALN
GLP-1R (Homo sapiens), sequence (P43220 24-463): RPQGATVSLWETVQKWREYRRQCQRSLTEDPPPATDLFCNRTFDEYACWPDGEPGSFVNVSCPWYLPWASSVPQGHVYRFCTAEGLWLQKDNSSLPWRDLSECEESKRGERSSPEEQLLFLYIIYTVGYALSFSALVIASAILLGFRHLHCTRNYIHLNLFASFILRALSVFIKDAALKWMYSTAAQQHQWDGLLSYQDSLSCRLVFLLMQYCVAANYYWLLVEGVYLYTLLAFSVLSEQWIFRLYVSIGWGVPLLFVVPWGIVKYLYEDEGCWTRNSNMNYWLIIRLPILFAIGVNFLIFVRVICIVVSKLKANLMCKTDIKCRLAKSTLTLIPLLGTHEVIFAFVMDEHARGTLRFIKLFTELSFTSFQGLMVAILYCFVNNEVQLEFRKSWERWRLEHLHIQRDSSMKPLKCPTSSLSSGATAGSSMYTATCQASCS

Substance | Kd [1] | Kd [2] | Kd [3] | Kd [4]
SDF-1α (from UniProt P48061) | 1.4 nM | 8.4 nM | – | –
exendin-4 (from UniProt P26349) | – | – | 54.3 nM | 37.8 nM
